Assay results taken from patent US20200024330A1.

Assays:
Assay in all cases: cell-based or functional assay
[1] = target: HIV-1 envelope glycoprotein (Env) of isolate MGRM-C-025, on pseudovirus (HIV-1)
[2] = target: HIV-1 Env of isolate MGRM-AG-011 (HIV-1)
[3] = target: HIV-1 Env of isolate MGRM-AG-002 (HIV-1)
[4] = target: HIV-1 envelope glycoprotein (Env) of isolate MGRM-C-028, on pseudovirus (HIV-1)
[5] = target: HIV-1 Env of isolate MGRM-G-015 (subtype G) (HIV-1)
[6] = target: HIV-1 Env of isolate MGRM-G-001 (subtype G) (HIV-1)
[7] = target: HIV-1 Env of isolate MGRM-AG-008 (HIV-1)
[8] = target: HIV-1 Env of isolate MGRM-AG-006 (HIV-1)
[9] = target: HIV-1 Env of isolate MGRM-AE-007 (HIV-1)
[10] = target: HIV-1 Env of isolate MGRM-AG-012 (HIV-1)
[11] = target: HIV-1 Env of isolate MGRM-G-017 (subtype G) (HIV-1)
[12] = target: HIV-1 Env of isolate MGRM-AG-005 (HIV-1)
[13] = target: HIV-1 envelope glycoprotein (Env) of isolate MGRM-C-022, on pseudovirus (HIV-1)
[14] = target: HIV-1 Env of isolate MGRM-G-004 (subtype G) (HIV-1)
[15] = target: HIV-1 Env of isolate MGRM-AG-003 (HIV-1)
[16] = target: HIV-1 Env of isolate MGRM-G-006 (subtype G) (HIV-1)
[17] = target: HIV-1 Env of isolate MGRM-G-014 (subtype G) (HIV-1)
[18] = target: HIV-1 Env of isolate MGRM-G-027 (subtype G) (HIV-1)
[19] = target: HIV-1 envelope glycoprotein (Env) of isolate MGRM-C-024, on pseudovirus (HIV-1)
[20] = target: HIV-1 envelope glycoprotein (Env) of isolate MGRM-C-014, on pseudovirus (HIV-1)
[21] = target: HIV-1 envelope glycoprotein (Env) of isolate MGRM-C-015, on pseudovirus (HIV-1)
[22] = target: HIV-1 Env of isolate MGRM-G-019 (subtype G) (HIV-1)
[23] = target: HIV-1 envelope glycoprotein (Env) of isolate MGRM-C-027, on pseudovirus (HIV-1)
[24] = target: aMLV envelope (negative control pseudovirus)
[25] = target: HIV-1 Env of isolate MGRM-AE-008 (HIV-1)
[26] = target: HIV-1 Env of isolate MGRM-G-009 (subtype G) (HIV-1)
[27] = target: HIV-1 Env of isolate MGRM-G-025 (subtype G) (HIV-1)
[28] = target: HIV-1 Env of isolate MGRM-AG-009 (HIV-1)
[29] = target: HIV-1 Env of isolate MGRM-AG-001 (HIV-1)
[30] = target: HIV-1 envelope glycoprotein (Env) of isolate MGRM-C-017, on pseudovirus (HIV-1)
[31] = target: HIV-1 Env of isolate MGRM-G-016 (subtype G) (HIV-1)
[32] = target: HIV-1 Env of isolate MGRM-G-011 (subtype G) (HIV-1)
[33] = target: HIV-1 Env of isolate MGRM-G-024 (subtype G) (HIV-1)
[34] = target: HIV-1 envelope glycoprotein (Env) of isolate MGRM-C-026, on pseudovirus (HIV-1)
[35] = target: HIV-1 envelope glycoprotein (Env) of isolate MGRM-C-020, on pseudovirus (HIV-1)
[36] = target: HIV-1 envelope glycoprotein (Env) of isolate MGRM-C-019, on pseudovirus (HIV-1)
[37] = target: HIV-1 Env of isolate MGRM-G-013 (subtype G) (HIV-1)
[38] = target: HIV-1 Env of isolate MGRM-AG-013 (HIV-1)
[39] = target: HIV-1 Env of isolate MGRM-G-028 (subtype G) (HIV-1)
[40] = target: HIV-1 envelope glycoprotein (Env) of isolate MGRM-C-023, on pseudovirus (HIV-1)

Substance: PGT-145 (4995_P16) (antibody)
- IC50, pseudovirus neutralization [1]: 0.044 µg/mL
- IC50 [2]: 0.003 µg/mL
- IC50 [3]: 0.056 µg/mL
- IC50, pseudovirus neutralization [4]: 0.099 µg/mL
- neutralization IC50 [5]: 10.5 µg/mL
- neutralization IC50 [6]: 0.028 µg/mL
- IC50 [7]: 0.244 µg/mL
- IC50 [8]: 6.6 µg/mL
- IC50 [9]: 0.181 µg/mL
- IC50 [10]: > 50 µg/mL
- neutralization IC50 [11]: 0.205 µg/mL
- IC50 [12]: 0.045 µg/mL
- IC50, pseudovirus neutralization [13]: 0.492 µg/mL
- neutralization IC50 [14]: > 50 µg/mL
- IC50 [15]: > 50 µg/mL
- neutralization IC50 [16]: 0.286 µg/mL
- neutralization IC50 [17]: 0.144 µg/mL
- neutralization IC50 [18]: 0.433 µg/mL
- IC50, pseudovirus neutralization [19]: 0.174 µg/mL
- IC50, pseudovirus neutralization [20]: 5.82 µg/mL
- IC50, pseudovirus neutralization [21]: 0.12 µg/mL
- neutralization IC50 [22]: 0.041 µg/mL
- IC50, pseudovirus neutralization [23]: 0.095 µg/mL
- neutralization IC50 [24]: > 50 µg/mL
- IC50 [25]: 1.46 µg/mL
- neutralization IC50 [26]: 0.982 µg/mL
- neutralization IC50 [27]: > 50 µg/mL
- IC50 [28]: > 50 µg/mL
- IC50 [29]: 0.164 µg/mL
- IC50, pseudovirus neutralization [30]: > 50 µg/mL
- neutralization IC50 [31]: 0.081 µg/mL
- neutralization IC50 [32]: 0.028 µg/mL
- neutralization IC50 [33]: 0.06 µg/mL
- IC50, pseudovirus neutralization [34]: > 50 µg/mL
- IC50, pseudovirus neutralization [35]: 0.712 µg/mL
- IC50, pseudovirus neutralization [36]: 0.005 µg/mL
- neutralization IC50 [37]: > 50 µg/mL
- IC50 [38]: 14.4 µg/mL
- neutralization IC50 [39]: 0.046 µg/mL
- IC50, pseudovirus neutralization [40]: 0.201 µg/mL
